Positions count from the first letter of the chain named.
T1: human GIP receptor (human) (UniProt P48546)
T1 sequence (looked up): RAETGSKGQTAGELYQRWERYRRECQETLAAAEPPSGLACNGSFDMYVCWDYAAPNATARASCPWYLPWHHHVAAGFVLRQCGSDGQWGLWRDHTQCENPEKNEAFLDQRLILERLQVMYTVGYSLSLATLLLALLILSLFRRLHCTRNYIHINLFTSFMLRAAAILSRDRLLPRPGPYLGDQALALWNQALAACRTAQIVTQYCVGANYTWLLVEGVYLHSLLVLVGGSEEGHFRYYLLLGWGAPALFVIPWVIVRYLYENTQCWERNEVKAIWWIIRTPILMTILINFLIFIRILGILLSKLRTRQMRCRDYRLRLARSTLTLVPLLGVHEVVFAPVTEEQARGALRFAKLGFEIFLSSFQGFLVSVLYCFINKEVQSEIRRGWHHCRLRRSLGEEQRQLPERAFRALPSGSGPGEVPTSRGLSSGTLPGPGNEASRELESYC

B1: Example 797 (peptide)
chain: YXQGTFTSDFSKXLDKKAQXAFIEYLIEXGPSSGAPPPSGS
modifications: synthetic construct; SITE 2: note = 2-Aminoisobutyric Acid; SITE 13: note = alpha-methyl-leucine; SITE 17: note = Lysine is chemically modified through conjugation of the epsilon-amino group of the Lysine side chain with (2-[2-(2-Amino-ethoxy)-ethoxy]-acetyl)-(gamma-Glu)-CO-(CH2) 16-CO2H; SITE 20: n
B2: Example 804 (peptide)
chain: B1 chain with K12X, G30S
modifications: synthetic construct; SITE 2: note = 2-Aminoisobutyric Acid; SITE 12: note = L-ornithine; SITE 13: note = alpha-methyl-leucine; SITE 17: note = Lysine is chemically modified through conjugation of the epsilon-amino group of the Lysine side chain with (2-[2-(2-Amino-ethoxy)-ethoxy]-acetyl)-(gamma-Glu)
B3: Example 77 (peptide)
chain: B1 chain with K12R, I27L, E28A, X29G
modifications: synthetic construct; SITE 2: note = 2-Aminoisobutyric Acid; SITE 13: note = alpha-methyl-leucine; SITE 17: note = Lysine is chemically modified through conjugation of the epsilon-amino group of the Lysine side chain with (2-[2-(2-Amino-ethoxy)-ethoxy]-acetyl)-(gamma-Glu)-CO-(CH2) 18-CO2H; SITE 20: n
B4: Example 799 (peptide)
chain: B1 chain with K12X
modifications: synthetic construct; SITE 2: note = 2-Aminoisobutyric Acid; SITE 12: note = (S)-2,4-diaminobutanoic acid; SITE 13: note = alpha-methyl-leucine; SITE 17: note = Lysine is chemically modified through conjugation of the epsilon-amino group of the Lysine side chain with (2-[2-(2-Amino-ethoxy)-ethoxy]-ac)
B5: Example 76 (peptide)
chain: B1 chain with K12X, I27L, E28A, X29G
modifications: synthetic construct; SITE 2: note = 2-Aminoisobutyric Acid; SITE 12: note = L-ornithine; SITE 13: note = alpha-methyl-leucine; SITE 17: note = Lysine is chemically modified through conjugation of the epsilon-amino group of the Lysine side chain with (2-[2-(2-Amino-ethoxy)-ethoxy]-acetyl)-(gamma-Glu)
B6: Example 806 (peptide)
chain: B1 chain with K12R, G30S
modifications: synthetic construct; SITE 2: note = 2-Aminoisobutyric Acid; SITE 13: note = alpha-methyl-leucine; SITE 17: note = Lysine is chemically modified through conjugation of the epsilon-amino group of the Lysine side chain with (2-[2-(2-Amino-ethoxy)-ethoxy]-acetyl)-(gamma-Glu)-CO-(CH2) 16-CO2H; SITE 20: n
B7: Example 820 (peptide)
chain: B1 chain with F10X, K12Q, I27L, X29A
modifications: synthetic construct; SITE 2: note = 2-Aminoisobutyric Acid; SITE 10: note = 3-(4-Pyridyl)-L-alanine; SITE 13: note = alpha-methyl-leucine; SITE 17: note = Lysine is chemically modified through conjugation of the epsilon-amino group of the Lysine side chain with (2-[2-(2-Amino-ethoxy)-ethoxy]-acetyl)
B8: Example 883 (SEQ ID NO: 889) (peptide)
chain: B1 chain with F10X, K12Q, E28A, X29G, S41E
modifications: synthetic construct; SITE 2: note = 2-Aminoisobutyric Acid; SITE 10: note = 3-(4-Pyridyl)-L-alanine; SITE 13: note = alpha-methyl-leucine; SITE 17: note = Lysine is chemically modified through conjugation of the epsilon-amino group of the Lysine side chain with (gamma-Glu)2-CO-(CH2)16-CO2H; SITE 20:
B9: Example 800 (peptide)
chain: B1 chain with K12X
modifications: synthetic construct; SITE 2: note = 2-Aminoisobutyric Acid; SITE 12: note = (S)-2,3-diaminopropanoic acid; SITE 13: note = alpha-methyl-leucine; SITE 17: note = Lysine is chemically modified through conjugation of the epsilon-amino group of the Lysine side chain with (2-[2-(2-Amino-ethoxy)-ethoxy]-a)
B10: Example 875 (SEQ ID NO: 881) (peptide)
chain: B1 chain with K12Q, E28A, X29G
modifications: synthetic construct; SITE 2: note = 2-Aminoisobutyric Acid; SITE 13: note = alpha-methyl-leucine; SITE 17: note = Lysine is chemically modified through conjugation of the epsilon-amino group of the Lysine side chain with (2-[2-(2-Amino-ethoxy)-ethoxy]-acetyl)-(gamma-Glu)-CO-(CH2) 16-CO2H; SITE 20: n
B11: Example 876 (SEQ ID NO: 882) (peptide)
chain: B1 chain with K12Q, E28A, X29G
modifications: not fully specified; synthetic construct; SITE 2: note = 2-Aminoisobutyric Acid; SITE 13: note = alpha-methyl-leucine; SITE 17: note = Lysine is chemically modified through conjugation of the epsilon-amino group of the Lysine side chain with (gamma-Glu)2-CO-(CH2)16-CO2H; SITE 20: note = 3-(4-Pyridyl)-L-alanine; SITE 41:
B12: Example 823 (peptide)
chain: B1 chain with F10X, K12Q, I27L, X29A, S41T
modifications: synthetic construct; SITE 2: note = 2-Aminoisobutyric Acid; SITE 10: note = 3-(4-Pyridyl)-L-alanine; SITE 13: note = alpha-methyl-leucine; SITE 17: note = Lysine is chemically modified through conjugation of the epsilon-amino group of the Lysine side chain with (2-[2-(2-Amino-ethoxy)-ethoxy]-acetyl)

Target: hGLP-1R (Homo sapiens, UniProt P43220)
Test: cell-based or functional assay

Sequence of hGLP-1R (P43220 24-463): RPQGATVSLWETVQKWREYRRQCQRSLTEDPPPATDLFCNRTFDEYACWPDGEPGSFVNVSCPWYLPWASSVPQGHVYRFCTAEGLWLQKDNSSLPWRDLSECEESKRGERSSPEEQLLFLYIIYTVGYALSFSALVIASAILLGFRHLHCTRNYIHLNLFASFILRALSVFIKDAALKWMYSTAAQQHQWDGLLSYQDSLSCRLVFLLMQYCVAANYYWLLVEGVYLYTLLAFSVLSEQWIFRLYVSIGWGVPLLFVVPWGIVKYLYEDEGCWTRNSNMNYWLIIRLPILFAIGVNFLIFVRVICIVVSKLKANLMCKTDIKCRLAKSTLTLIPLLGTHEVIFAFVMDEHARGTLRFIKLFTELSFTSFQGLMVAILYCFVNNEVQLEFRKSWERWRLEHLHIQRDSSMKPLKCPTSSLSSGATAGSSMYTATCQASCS

| Binder | Relative cAMP EC50 [nM] | cAMP Rel EC50 (1% HSA) [nM] | cAMP Rel EC50, nM (in the presence of 1% HSA) [nM] | cAMP Rel EC50 [nM] |
| --- | --- | --- | --- | --- |
| B1 | 0.449 | 102 |  |  |
| B2 | 0.915 | 161 |  |  |
| B3 | 1.85 |  | 339 |  |
| B4 | 0.462 | 179 |  |  |
| B5 | 2.25 |  | 436 |  |
| B6 | 0.706 | 128 |  |  |
| B7 | 2.78 | 299 |  |  |
| B8 |  |  |  | 120 |
| B9 | 0.486 | 164 |  |  |
| B10 |  |  |  | 78.6 |
| B11 |  |  |  | 70 |
| B12 | 2.96 | 421 |  |  |

Target: T1, human GIP receptor (human)
Test: cell-based or functional assay

| Binder | Relative cAMP EC50 [nM] | cAMP Rel EC50 (1% HSA) [nM] | cAMP Rel EC50, nM (in the presence of 1% HSA) [nM] | cAMP Rel EC50 [nM] |
| --- | --- | --- | --- | --- |
| B1 | 0.0781 | 16.7 |  |  |
| B2 | 0.0751 | 17.6 |  |  |
| B3 | 0.168 |  | 37.9 |  |
| B4 | 0.0668 | 18.4 |  |  |
| B5 | 0.196 |  | 45.5 |  |
| B6 | 0.124 | 15.1 |  |  |
| B7 | 0.121 | 17.5 |  |  |
| B8 |  |  |  | 9.41 |
| B9 | 0.283 | 40.2 |  |  |
| B10 |  |  |  | 13.8 |
| B11 |  |  |  | 7.94 |
| B12 | 0.171 | 25.6 |  |  |

Target: human glucagon receptor (human) (UniProt P47871)
Test: cell-based or functional assay

Sequence of human glucagon receptor (human) (P47871 26-477): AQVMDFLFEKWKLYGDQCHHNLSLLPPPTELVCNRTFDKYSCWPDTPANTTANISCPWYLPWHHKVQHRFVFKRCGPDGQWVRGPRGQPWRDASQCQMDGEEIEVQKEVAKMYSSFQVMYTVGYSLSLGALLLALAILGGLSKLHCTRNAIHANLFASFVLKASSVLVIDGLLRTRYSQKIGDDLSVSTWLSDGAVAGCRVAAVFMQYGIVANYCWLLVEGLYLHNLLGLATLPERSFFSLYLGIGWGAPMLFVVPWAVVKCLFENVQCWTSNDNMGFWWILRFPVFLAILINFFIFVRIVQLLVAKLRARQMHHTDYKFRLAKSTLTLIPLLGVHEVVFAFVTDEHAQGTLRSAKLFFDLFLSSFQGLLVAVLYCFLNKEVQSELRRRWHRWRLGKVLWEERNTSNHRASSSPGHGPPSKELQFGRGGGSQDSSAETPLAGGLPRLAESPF

| Binder | Relative cAMP EC50 [nM] | cAMP Rel EC50 (1% HSA) [nM] | cAMP Rel EC50, nM (in the presence of 1% HSA) [nM] | cAMP Rel EC50 [nM] |
| --- | --- | --- | --- | --- |
| B1 | 3.78 | 963 |  |  |
| B2 | 11.5 | 2310 |  |  |
| B3 | 15.3 |  | 2610 |  |
| B4 | 1.64 | 574 |  |  |
| B5 | 11.1 |  | 2240 |  |
| B6 | 8.25 | 2760 |  |  |
| B7 | 6.83 | 1270 |  |  |
| B8 |  |  |  | 578 |
| B9 | 21 | 2500 |  |  |
| B10 |  |  |  | 689 |
| B11 |  |  |  | 940 |
| B12 | 7.75 | 1410 |  |  |

Source: US20240270821A1, “GIP/GLP1/GCG TRI-RECEPTOR AGONISTS AND USES THEREOF” (priority 2023, published 2024)
